Experimental data as given in doi:10.1101/2022.09.02.506315 (bioRxiv, 2022).

B1: Thermus thermophilus RNA polymerase ω subunit (natural protein)
chain: MAEPGIDKLFGMVDSKYRLTVVVAKRAQQLLRHGFKNTVLEPEERPKMQTLEGLFDDPNAVTWAMKELLTGRLVFGENLVPEDRLQKEMERLYPVEREE
B2: Thermus thermophilus transcription termination factor Rho (natural protein, UniProt Q5SJE9 1-426, looked up)
chain: MRRKETLQETPLTYQELASKILPELHLLAQEAGIEGYKRMKKDQLIMALLERQTQGEGLRLVKGYLEISQDGYGFLTENLHNLESRVAIVSAGLIKQYALRAGDYVVGQARPPRENERYATLLKVEAVNNLDPEAAKNRPRFDELTPQFPDRQIRLETTPDELSTRVIDLLAPIGRGQRGLIVAPPKAGKTTLLKKIANAVLKNEPDIKVIVLLIDERPEEVTDFRESVQGAEVIASTFDEPPQNHIRVAEFVHERAKRIVEEGGHVMILLDSITRLARANNLVTPPTGRTLSGGLDSAALYFPKRFLGAARNIRGGGSLTILATALVETGSRMDDVIFEEFKGTGNMELHLSRRLEERRIFPAIDILKSGTRREELLLGEEVTHKMWLLRKVLADMDPAEAMEMLLARLARTKNNKEFLASLAAR

How the values were obtained:
Assay in all cases: cryo-EM structure
[1] = biological target: B2
cryo-EM structure = biological target: the molecule itself
[2] = biological target: Thermus thermophilus RNA polymerase β subunit (Thermus thermophilus, UniProt Q8RQE9 1-1119)
[3] = biological target: Thermus thermophilus RNA polymerase β' subunit (Thermus thermophilus, UniProt Q8RQE8 1-1524)
Chain of Thermus thermophilus RNA polymerase β' subunit (Q8RQE8 whole entry): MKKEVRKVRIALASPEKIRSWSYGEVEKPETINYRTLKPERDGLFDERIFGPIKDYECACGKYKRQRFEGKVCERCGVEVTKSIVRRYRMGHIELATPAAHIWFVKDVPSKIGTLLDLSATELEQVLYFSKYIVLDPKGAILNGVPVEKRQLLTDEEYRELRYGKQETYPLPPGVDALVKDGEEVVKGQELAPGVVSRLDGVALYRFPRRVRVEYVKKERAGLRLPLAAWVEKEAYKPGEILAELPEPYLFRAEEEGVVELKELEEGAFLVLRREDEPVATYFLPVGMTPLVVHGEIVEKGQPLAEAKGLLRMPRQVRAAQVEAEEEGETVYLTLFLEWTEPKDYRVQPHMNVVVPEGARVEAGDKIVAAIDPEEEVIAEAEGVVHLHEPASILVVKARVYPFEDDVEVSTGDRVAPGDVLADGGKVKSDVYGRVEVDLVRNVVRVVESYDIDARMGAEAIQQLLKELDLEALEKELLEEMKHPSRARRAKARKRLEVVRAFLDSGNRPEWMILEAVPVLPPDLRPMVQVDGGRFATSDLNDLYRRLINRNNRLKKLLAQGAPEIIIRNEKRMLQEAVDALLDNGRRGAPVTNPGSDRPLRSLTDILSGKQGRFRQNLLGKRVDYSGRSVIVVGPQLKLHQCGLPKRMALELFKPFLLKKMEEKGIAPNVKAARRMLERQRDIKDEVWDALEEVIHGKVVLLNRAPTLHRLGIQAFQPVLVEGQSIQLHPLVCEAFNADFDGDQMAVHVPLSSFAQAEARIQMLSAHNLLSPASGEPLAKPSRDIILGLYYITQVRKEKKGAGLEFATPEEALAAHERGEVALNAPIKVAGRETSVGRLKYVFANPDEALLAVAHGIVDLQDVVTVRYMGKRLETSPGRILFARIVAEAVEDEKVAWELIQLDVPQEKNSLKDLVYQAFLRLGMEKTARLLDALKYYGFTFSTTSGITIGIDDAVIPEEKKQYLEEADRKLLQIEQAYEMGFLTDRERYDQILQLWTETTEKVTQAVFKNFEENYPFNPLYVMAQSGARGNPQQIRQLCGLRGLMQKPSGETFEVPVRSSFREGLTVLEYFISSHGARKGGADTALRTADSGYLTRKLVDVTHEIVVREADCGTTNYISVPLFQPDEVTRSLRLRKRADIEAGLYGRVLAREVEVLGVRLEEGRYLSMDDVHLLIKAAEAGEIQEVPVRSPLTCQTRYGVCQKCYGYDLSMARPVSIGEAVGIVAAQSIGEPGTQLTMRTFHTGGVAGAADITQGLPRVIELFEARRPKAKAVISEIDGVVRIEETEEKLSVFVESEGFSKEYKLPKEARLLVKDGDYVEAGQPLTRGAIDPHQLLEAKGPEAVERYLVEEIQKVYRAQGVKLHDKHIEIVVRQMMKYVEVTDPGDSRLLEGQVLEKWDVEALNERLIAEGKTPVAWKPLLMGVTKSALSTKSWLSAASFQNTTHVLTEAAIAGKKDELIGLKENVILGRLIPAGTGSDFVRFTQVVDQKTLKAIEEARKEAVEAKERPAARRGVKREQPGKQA

Chain of Thermus thermophilus RNA polymerase β subunit (Q8RQE9 whole entry): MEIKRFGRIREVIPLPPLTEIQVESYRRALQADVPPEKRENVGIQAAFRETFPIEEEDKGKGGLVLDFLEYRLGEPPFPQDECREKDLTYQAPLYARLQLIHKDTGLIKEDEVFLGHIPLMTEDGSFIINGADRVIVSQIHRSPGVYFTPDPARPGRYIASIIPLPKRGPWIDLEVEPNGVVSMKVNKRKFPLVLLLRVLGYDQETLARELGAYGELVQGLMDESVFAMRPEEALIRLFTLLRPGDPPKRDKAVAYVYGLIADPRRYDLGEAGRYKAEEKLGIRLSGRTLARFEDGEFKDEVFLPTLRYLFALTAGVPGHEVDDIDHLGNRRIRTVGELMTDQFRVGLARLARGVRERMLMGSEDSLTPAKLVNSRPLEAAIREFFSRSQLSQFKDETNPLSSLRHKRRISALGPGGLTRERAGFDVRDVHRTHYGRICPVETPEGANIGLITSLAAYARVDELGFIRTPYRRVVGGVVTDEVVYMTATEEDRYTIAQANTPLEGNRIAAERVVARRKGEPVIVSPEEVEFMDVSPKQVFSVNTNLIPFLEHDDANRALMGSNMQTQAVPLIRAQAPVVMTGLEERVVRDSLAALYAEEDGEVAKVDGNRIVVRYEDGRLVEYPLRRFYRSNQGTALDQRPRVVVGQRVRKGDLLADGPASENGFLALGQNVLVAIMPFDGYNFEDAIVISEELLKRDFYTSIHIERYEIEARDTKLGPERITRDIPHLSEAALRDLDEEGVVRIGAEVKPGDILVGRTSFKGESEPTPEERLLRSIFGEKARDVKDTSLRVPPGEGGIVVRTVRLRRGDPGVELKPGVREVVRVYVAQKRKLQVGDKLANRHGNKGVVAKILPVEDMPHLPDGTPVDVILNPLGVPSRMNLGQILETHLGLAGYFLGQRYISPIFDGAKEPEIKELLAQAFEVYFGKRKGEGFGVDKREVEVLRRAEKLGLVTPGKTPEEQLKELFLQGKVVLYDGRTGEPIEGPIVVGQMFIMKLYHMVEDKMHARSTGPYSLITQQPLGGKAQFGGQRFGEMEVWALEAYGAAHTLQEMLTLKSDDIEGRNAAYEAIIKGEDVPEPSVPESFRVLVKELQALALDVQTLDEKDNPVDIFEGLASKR

Question: Does B1 bind [1]?
Answer: binds

Question: How did the “stoichiometry N” value (cryo-EM structure) turn out when B2 was run?
Answer: 6

Question: Does B2 bind [2]?
Answer: binds

Question: Does B2 bind [3]?
Answer: binds
